Test results from patent US20130071417A1 (GOVERNING COUNCIL OF THE UNIVERSITY OF TORONTO, published 2013).

T1: His-tagged rCEA A3B3 domain (residues 445-656, C-terminal His-tag) (human, UniProt P06731 479-690)
T1 construct: also called rCEA A3B3 fragment
T1 sequence: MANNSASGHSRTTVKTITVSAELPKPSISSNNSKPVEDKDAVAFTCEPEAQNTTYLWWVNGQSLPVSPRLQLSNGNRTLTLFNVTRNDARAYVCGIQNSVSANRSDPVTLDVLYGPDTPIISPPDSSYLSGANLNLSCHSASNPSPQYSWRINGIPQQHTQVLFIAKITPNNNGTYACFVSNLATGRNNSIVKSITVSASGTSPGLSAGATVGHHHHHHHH

T2: full length tumour glycoform of human CEA (Sigma-Aldrich) (human, UniProt P06731 35-685, glycosylated (tumour glycoform))
T2 construct: mature; Bought protein; also called FL-CEA; full length CEA
T2 sequence (looked up): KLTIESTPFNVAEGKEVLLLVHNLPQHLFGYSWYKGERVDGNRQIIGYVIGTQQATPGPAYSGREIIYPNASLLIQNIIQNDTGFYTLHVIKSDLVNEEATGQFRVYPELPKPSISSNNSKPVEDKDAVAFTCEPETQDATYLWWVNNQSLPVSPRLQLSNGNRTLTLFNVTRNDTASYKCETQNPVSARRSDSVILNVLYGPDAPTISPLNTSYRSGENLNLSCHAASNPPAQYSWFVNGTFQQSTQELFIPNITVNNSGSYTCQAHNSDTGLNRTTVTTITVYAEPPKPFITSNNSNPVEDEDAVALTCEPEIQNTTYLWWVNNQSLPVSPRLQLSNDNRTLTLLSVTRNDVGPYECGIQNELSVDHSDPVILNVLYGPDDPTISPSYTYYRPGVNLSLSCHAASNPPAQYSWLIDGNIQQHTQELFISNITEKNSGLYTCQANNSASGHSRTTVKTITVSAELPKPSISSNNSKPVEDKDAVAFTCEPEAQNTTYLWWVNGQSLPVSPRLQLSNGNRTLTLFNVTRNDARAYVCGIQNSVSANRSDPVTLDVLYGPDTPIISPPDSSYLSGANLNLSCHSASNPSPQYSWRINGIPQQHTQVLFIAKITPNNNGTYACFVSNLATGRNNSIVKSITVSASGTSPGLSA

B1: FLAG-tagged rCEA N (CEA residues 1-214 with His-tag and FLAG epitope) (other, human, UniProt P06731 35-248, looked up, not shown: small tags and cut ends)
chain: KLTIESTPFNVAEGKEVLLLVHNLPQHLFGYSWYKGERVDGNRQIIGYVIGTQQATPGPAYSGREIIYPNASLLIQNIIQNDTGFYTLHVIKSDLVNEEATGQFRVYPELPKPSISSNNSKPVEDKDAVAFTCEPETQDATYLWWVNNQSLPVSPRLQLSNGNRTLTLFNVTRNDTASYKCETQNPVSARRSDSVILNVLYGPDAPTISPLNTS
notes: range 1-214; Made in E. coli; The extra C-terminal CEA residues were added for stability and yield; also called FLAG-tagged rCEA N domain; FLAG-tagged N domain

Columns and labels:
[1] = target: B1; assay: ELISA; target coated (2 µg per well), FLAG-tagged rCEA N titrated, anti-FLAG M2 HRP detection
Protocol: (§1) Briefly, 96-well flat-bottomed Falcon microtiter plates (Becton-Dickinson Biosciences; Franklin Lakes, N.J.) were coated with 2 μg of purified CEA modules or full length CEA per well. After blocking with PBS containing Tween (0.05% v/v) and bovine serum albumin (1% w/v), the plates were then incubated for one hour at room temperature with increasing concentrations of the FLAG-tagged rCEA N diluted in PBS-Tween (0.05%; 100 μL). The presence of bound FLAG-tagged rCEA was detected by incubating the plates for 1 hour at room temperature with horseradish peroxidase (HRP) coupled anti-FLAG monoclonal antibody M2 (1:5,000 dilution; Sigma-Aldrich). The chromogenic HRP substrate 3,3′,5,5′-tetramethylbenzidine (TMB; Sigma) was used to measure at 450 nm the amount of bound FLAG-tagged N domain.

[2] = target: T1, His-tagged rCEA A3B3 domain (residues …); assay: ELISA; untagged rCEA N coated, His-tagged module in solution, anti-His HRP detection
[3] = target: T2, full length tumour glycoform of human …; assay: ELISA; target coated (2 µg per well), FLAG-tagged rCEA N titrated, anti-FLAG M2 HRP detection
Protocol: as §1

[4] = target: T1, His-tagged rCEA A3B3 domain (residues …); assay: as above
Protocol: as §1

| binding result [1] | binding result [2] | binding result [3] | binding result [4] | Binder |
| --- | --- | --- | --- | --- |
| binds | binds | – | – | untagged rCEA N domain (cleaved rCEA N, residues 1-132) (other, Made in E. coli, so it has no N-glycans; also called WT rCEA N domain; untagged WT rCEA N domain) KLTIESTPFNVAEGKEVLLLVHNLPQHLFGYSWYKGERVDGNRQIIGYVIGTQQATPGPAYSGREIIYPNASLLIQNIIQNDTGFYTLHVIKSDLVNEEATGQFRVYPELPKPSISSNNSKPVEDKDAVAFT |
| – | – | binds | binds | B1 |
